Measurements: article PMC3552960

Tests used:
[1] = biological target: CCR5 Thr^2.56(82)Lys mutant receptor (human) (UniProt P51681)
[2] = biological target: CCR5 Thr^2.56(82)Lys/Arg^6.32(225)Gln double-mutant receptor (human) (UniProt P51681)
[3] = biological target: CCR5 Thr^2.56(82)Pro mutant receptor (human) (UniProt P51681)
[4] = biological target: CCR5 Thr^2.56(82)Pro/Arg^6.32(225)Gln double-mutant receptor (human) (UniProt P51681)
[5] = biological target: wild type human CCR5 chemokine receptor (human) (UniProt P51681)

Which results are given for “HIV-1C Du151 gp150 envelope glycoprotein (Env), carboxy-terminally truncated (natural protein)”?
Env-directed cell fusion (luciferase) on HOS-CD4-Luc cells; maximum fusion [1]: 4.6 % wild type; Env-directed cell fusion (luciferase) on HOS-CD4-Luc cells; maximum fusion efficiency (fusion coefficient) (fusion coefficient) [1]: 0.84; Env-directed cell fusion (luciferase) on HOS-CD4-Luc cells; maximum fusion [2]: 16.8 % wild type; Env-directed cell fusion (luciferase) on HOS-CD4-Luc cells; maximum fusion efficiency (fusion coefficient) (fusion coefficient) [2]: 1.9; Env-directed cell fusion (luciferase) on HOS-CD4-Luc cells; maximum fusion [3]: 135 % wild type; Env-directed cell fusion (luciferase) on HOS-CD4-Luc cells; maximum fusion efficiency (fusion coefficient) (fusion coefficient) [3]: 16.5; Env-directed cell fusion (luciferase) on HOS-CD4-Luc cells; maximum fusion [4]: 135 % wild type; Env-directed cell fusion (luciferase) on HOS-CD4-Luc cells; maximum fusion efficiency (fusion coefficient) (fusion coefficient) [4]: 18.8; Env-directed cell fusion (luciferase) on HOS-CD4-Luc cells; maximum fusion efficiency (fusion coefficient: luciferase activity divided by mean fluorescence) (fusion coefficient) [5]: 11.8
